In ChEMBL document CHEMBL1629679, “Extended-spectrum cephalosporinases in Pseudomonas aeruginosa” (2009) one finds Km, kcat and kcat/Km data, which are given here for 2 proteins.

Substrate in series [1]: CC1(C)S[C@@H]2[C@H](NC(=O)Cc3ccccc3)C(=O)N2[C@H]1C(=O)O
The experiment in a line: (§1) Activity at Pseudomonas aeruginosa PDC-5 by spectrophotometer.

Substrate in series [2]: C[C@@H](O)[C@H]1C(=O)N2C(C(=O)O)=C(SCCNC=N)C[C@H]12
The series is described as §1.

Substrate in series [3]: CO/N=C(\C(=O)N[C@@H]1C(=O)N2C(C(=O)[O-])=C(C[N+]3(C)CCCC3)CS[C@H]12)c1csc(N)n1
The description is as §1.

Substrate in series [4]: CC(C)(O/N=C(\C(=O)N[C@@H]1C(=O)N2C(C(=O)[O-])=C(C[n+]3ccccc3)CS[C@H]12)c1csc(N)n1)C(=O)O
Described as §1.

Substrate in series [5]: CO/N=C(\C(=O)N[C@@H]1C(=O)N2C(C(=O)O)=C(COC(C)=O)CS[C@H]12)c1csc(N)n1
Described as §1.

Substrate in series [6]: CCN1CCN(C(=O)N[C@@H](C(=O)N[C@@H]2C(=O)N3[C@@H]2SC(C)(C)[C@@H]3C(=O)O)c2ccccc2)C(=O)C1=O
The series is described as §1.

Substrate in series [7]: CC1(C)S[C@@H]2[C@H](NC(=O)Cc3ccccc3)C(=O)N2[C@H]1C(=O)O
The experiment in a line: (§2) Ratio of Kcat to Km for Pseudomonas aeruginosa PDC-5 by spectrophotometer.

Substrate in series [8]: C[C@@H](O)[C@H]1C(=O)N2C(C(=O)O)=C(SCCNC=N)C[C@H]12
The series is described as §2.

Substrate in series [9]: CC(C)(O/N=C(\C(=O)N[C@@H]1C(=O)N2C(C(=O)[O-])=C(C[n+]3ccccc3)CS[C@H]12)c1csc(N)n1)C(=O)O
Described as §2.

Substrate in series [10]: CO/N=C(\C(=O)N[C@@H]1C(=O)N2C(C(=O)O)=C(COC(C)=O)CS[C@H]12)c1csc(N)n1
Described as §2.

Substrate in series [11]: CCN1CCN(C(=O)N[C@@H](C(=O)N[C@@H]2C(=O)N3[C@@H]2SC(C)(C)[C@@H]3C(=O)O)c2ccccc2)C(=O)C1=O
The description is as §2.

Substrate in series [12]: CC1(C)S[C@@H]2[C@H](NC(=O)Cc3ccccc3)C(=O)N2[C@H]1C(=O)O
The experiment in a line: (§3) Ratio of Kcat to Km for Pseudomonas aeruginosa PDC-1 by spectrophotometer.

Substrate in series [13]: C[C@@H](O)[C@H]1C(=O)N2C(C(=O)O)=C(SCCNC=N)C[C@H]12
The description is as §3.

Substrate in series [14]: CO/N=C(\C(=O)N[C@@H]1C(=O)N2C(C(=O)[O-])=C(C[N+]3(C)CCCC3)CS[C@H]12)c1csc(N)n1
Described as §3.

Substrate in series [15]: CC(C)(O/N=C(\C(=O)N[C@@H]1C(=O)N2C(C(=O)[O-])=C(C[n+]3ccccc3)CS[C@H]12)c1csc(N)n1)C(=O)O
The description is as §3.

Substrate in series [16]: CO/N=C(\C(=O)N[C@@H]1C(=O)N2C(C(=O)O)=C(COC(C)=O)CS[C@H]12)c1csc(N)n1
The series is described as §3.

Substrate in series [17]: CCN1CCN(C(=O)N[C@@H](C(=O)N[C@@H]2C(=O)N3[C@@H]2SC(C)(C)[C@@H]3C(=O)O)c2ccccc2)C(=O)C1=O
The series is described as §3.

Substrate in series [18]: CC1(C)S[C@@H]2[C@H](NC(=O)Cc3ccccc3)C(=O)N2[C@H]1C(=O)O
Briefly: (§4) Activity at Pseudomonas aeruginosa PDC-1 by spectrophotometer.

Substrate in series [19]: C[C@@H](O)[C@H]1C(=O)N2C(C(=O)O)=C(SCCNC=N)C[C@H]12
The series is described as §4.

Substrate in series [20]: CO/N=C(\C(=O)N[C@@H]1C(=O)N2C(C(=O)[O-])=C(C[N+]3(C)CCCC3)CS[C@H]12)c1csc(N)n1
Described as §4.

Substrate in series [21]: CC(C)(O/N=C(\C(=O)N[C@@H]1C(=O)N2C(C(=O)[O-])=C(C[n+]3ccccc3)CS[C@H]12)c1csc(N)n1)C(=O)O
The series is described as §4.

Substrate in series [22]: CO/N=C(\C(=O)N[C@@H]1C(=O)N2C(C(=O)O)=C(COC(C)=O)CS[C@H]12)c1csc(N)n1
The series is described as §4.

Substrate in series [23]: CCN1CCN(C(=O)N[C@@H](C(=O)N[C@@H]2C(=O)N3[C@@H]2SC(C)(C)[C@@H]3C(=O)O)c2ccccc2)C(=O)C1=O
The series is described as §4.

B1: Beta-lactamase (Pseudomonas aeruginosa), Q8RL90 (protein)
chain: MRDTRFPCLCGIAASTLLFATTPAIAGEAPADRLKALVDAAVQPVMKANDIPGLAVAISLKGEPHYFSYGLASKEDGRQVTPETLFEIGSVSKTFTATLAGYALAQDKMRLDDRASQHWPALQGSRFDGISLLDLATYTAGGLPLQFPDSVQKDQAQIRDYYRQWQPTYAPGSQRLYSNPSIGLFGYLAARSLGQPFERLMEQQVFPALGLEQTHLDVPEAALAQYAQGYGKDDRPLRVGPGPLDAEGYGVKTSAADLLRFVDANLHPERLDRPWAQALDATHRGYYKVGDMTQGLGWEAYDWPISLKRLQAGNSTPMALQPHRIARLPAPQALEGQRLLNKTGSTNGFGAYVAFVPGRDLGLVILANRNYPNAERVKIAYAILSGLEQQGKVPLKR
The term Km denotes the substrate concentration at which the rate is half of its maximum. The term kcat denotes the maximal rate divided by the concentration of active sites. The term kcat/Km denotes the second-order rate constant that governs catalysis at low substrate concentration. B1: the Km in series [1] amounted to 35 µM; in series [2], 15 µM; in [3] it was 1700 µM; in series [4] it was 30 µM; in [5], 5 µM; in series [6] it was 40 µM. In addition, the kcat in series [1] worked out at 30 s⁻¹; in series [2], 0.1 s⁻¹; in series [4] it was 0.015 s⁻¹; in series [5], 0.1 s⁻¹; in series [6], 5 s⁻¹. The kcat/Km is 860000 M⁻¹ s⁻¹ in series [7]; 6e+06 M⁻¹ s⁻¹ in [8]; 500000 M⁻¹ s⁻¹ in series [9]; 20000 M⁻¹ s⁻¹ in series [10]; 125000 M⁻¹ s⁻¹ in series [11].

B2: Beta-lactamase (Pseudomonas aeruginosa (strain ATCC 15692 / PAO1 / 1C / PRS 101 / LMG12228)), P24735 (protein)
chain: MRDTRFPCLCGIAASTLLFATTPAIAGEAPADRLKALVDAAVQPVMKANDIPGLAVAISLKGEPHYFSYGLASKEDGRRVTPETLFEIGSVSKTFTATLAGYALTQDKMRLDDRASQHWPALQGSRFDGISLLDLATYTAGGLPLQFPDSVQKDQAQIRDYYRQWQPTYAPGSQRLYSNPSIGLFGYLAARSLGQPFERLMEQQVFPALGLEQTHLDVPEAALAQYAQGYGKDDRPLRVGPGPLDAEGYGVKTSAADLLRFVDANLHPERLDRPWAQALDATHRGYYKVGDMTQGLGWEAYDWPISLKRLQAGNSTPMALQPHRIARLPAPQALEGQRLLNKTGSTNGFGAYVAFVPGRDLGLVILANRNYPNAERVKIAYAILSGLEQQGKVPLKR
As to B2, the kcat/Km in series [12] worked out at 430000 M⁻¹ s⁻¹; in [13], 500000 M⁻¹ s⁻¹; in series [14], 100000 M⁻¹ s⁻¹; in [15] it was 200000 M⁻¹ s⁻¹; in series [16], 3000 M⁻¹ s⁻¹; in series [17] it was 50000 M⁻¹ s⁻¹. Also, the Km in series [18] came out at 35 µM; in series [19] it was 20 µM; in series [20], 800 µM; in [22], 6 µM; in [23], 100 µM. The kcat in series [19] is 0.01 s⁻¹; in series [20], 0.08 s⁻¹; in [21] it was 0.004 s⁻¹; in [22], 0.02 s⁻¹; in series [23], 2 s⁻¹.
